Assay results taken from article PMC6327041, “Histone H3 binding to the PHD1 domain of histone demethylase KDM5A enables active site remodeling” (Nature Communications, 2019).

Molecular target: KDM5A PHD1 domain, S287-K347 (UniProt P29375)
Test: competition fluorescence polarization
Details: reference: unmodified H3 10mer peptide

Sequence of KDM5A PHD1 domain, S287-K347 (P29375 whole entry, looked up, the tested form may be a part): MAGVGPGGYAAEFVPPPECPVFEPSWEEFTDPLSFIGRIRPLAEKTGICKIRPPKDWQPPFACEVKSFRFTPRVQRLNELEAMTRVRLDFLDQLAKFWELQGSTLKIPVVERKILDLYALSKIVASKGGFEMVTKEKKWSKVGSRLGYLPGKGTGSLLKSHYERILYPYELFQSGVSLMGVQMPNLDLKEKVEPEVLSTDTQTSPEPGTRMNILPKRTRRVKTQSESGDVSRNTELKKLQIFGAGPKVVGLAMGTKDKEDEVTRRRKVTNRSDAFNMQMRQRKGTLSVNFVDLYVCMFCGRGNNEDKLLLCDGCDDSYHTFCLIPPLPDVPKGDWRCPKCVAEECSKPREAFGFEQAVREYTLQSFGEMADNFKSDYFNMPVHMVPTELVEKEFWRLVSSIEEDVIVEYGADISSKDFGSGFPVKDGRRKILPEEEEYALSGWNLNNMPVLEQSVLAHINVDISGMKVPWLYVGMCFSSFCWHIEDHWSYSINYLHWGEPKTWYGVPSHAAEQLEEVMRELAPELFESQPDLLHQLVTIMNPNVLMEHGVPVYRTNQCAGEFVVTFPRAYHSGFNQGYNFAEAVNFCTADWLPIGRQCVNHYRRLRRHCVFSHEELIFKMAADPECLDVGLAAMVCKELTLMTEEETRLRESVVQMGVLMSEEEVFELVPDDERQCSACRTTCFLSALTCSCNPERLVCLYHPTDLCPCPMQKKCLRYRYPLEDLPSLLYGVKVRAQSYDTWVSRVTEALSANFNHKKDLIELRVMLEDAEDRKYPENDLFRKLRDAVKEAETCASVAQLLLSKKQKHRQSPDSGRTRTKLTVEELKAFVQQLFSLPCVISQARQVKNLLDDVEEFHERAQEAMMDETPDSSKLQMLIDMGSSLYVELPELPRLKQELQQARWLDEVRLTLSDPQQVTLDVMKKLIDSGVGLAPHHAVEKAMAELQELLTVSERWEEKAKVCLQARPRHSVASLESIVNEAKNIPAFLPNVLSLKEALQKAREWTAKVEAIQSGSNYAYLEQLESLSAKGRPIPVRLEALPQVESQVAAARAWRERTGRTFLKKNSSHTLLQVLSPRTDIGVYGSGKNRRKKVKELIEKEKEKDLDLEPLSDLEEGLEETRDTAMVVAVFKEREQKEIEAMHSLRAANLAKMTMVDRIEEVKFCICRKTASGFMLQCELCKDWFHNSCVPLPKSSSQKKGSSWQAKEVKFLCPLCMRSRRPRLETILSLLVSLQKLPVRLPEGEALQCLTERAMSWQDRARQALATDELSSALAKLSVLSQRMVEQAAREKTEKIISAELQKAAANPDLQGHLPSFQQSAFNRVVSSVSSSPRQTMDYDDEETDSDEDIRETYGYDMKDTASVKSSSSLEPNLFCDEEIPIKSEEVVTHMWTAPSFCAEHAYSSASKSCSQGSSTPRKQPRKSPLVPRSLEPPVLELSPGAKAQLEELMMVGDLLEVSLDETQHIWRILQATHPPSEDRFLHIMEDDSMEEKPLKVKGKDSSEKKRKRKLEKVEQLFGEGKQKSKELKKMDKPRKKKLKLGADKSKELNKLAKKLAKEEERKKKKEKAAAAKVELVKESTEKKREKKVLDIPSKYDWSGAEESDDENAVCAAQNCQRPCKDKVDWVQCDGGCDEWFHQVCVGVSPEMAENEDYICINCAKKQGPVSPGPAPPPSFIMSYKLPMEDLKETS

Substance | binding against the reference (sites T6) | binding against the reference (sites T3)
histone H3 (N-terminal tail peptide) N-terminal tail 10mer, 1-10 (from UniProt P68431) H3T6ph 10mer peptide | weaker | –
histone H3 (N-terminal tail peptide) N-terminal tail 10mer, 1-10 (from UniProt P68431) H3T3ph 10mer peptide | – | weaker
